Assay results published in the supplement of paper PMC10065799, “High-throughput profiling of sequence recognition by tyrosine kinases and SH2 domains using bacterial peptide display” (eLife, 2023).

How the values were obtained:
Fer (mouse) = assay: phosphorylation enrichment, bacterial display (enrichment ratio); higher = better substrate or ligand; peptides without Tyr show the background
Hck = Hck (UniProt P08631); assay: as above
Jak2 = Jak2 (UniProt O60674); assay: as above
Fyn = Fyn (UniProt P06241); assay: as above
c-Abl (mouse) = assay: as above
EPHB1 = EPHB1 (UniProt P54762); assay: as above
Fes = Fes (UniProt P07332); assay: as above
FGFR3 = FGFR3 (UniProt P22607); assay: as above
EPHB2 = EPHB2 (UniProt P29323); assay: as above
c-Src = assay: as above
AncSZ = assay: as above
MERTK = MERTK (UniProt Q12866); assay: as above
FGFR1 = FGFR1 (UniProt P11362); assay: as above
Grb2 SH2 = Grb2 SH2 (UniProt P62993); assay: SH2 binding enrichment of the phosphorylated peptide, bacterial display (enrichment ratio); higher = better substrate or ligand; peptides without Tyr show the background
c-Src SH2 = assay: as above
SHP2-C SH2 = assay: as above
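Throughout, for SH2 binding enrichment of the phosphorylated peptide, bacterial display: peptide library displayed on the E. coli surface as eCPX fusions, selected cells deep-sequenced, score is each peptide's frequency after selection divided by its frequency in the input.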
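Throughout, for phosphorylation enrichment, bacterial display: 11-residue human phosphosite peptides and single-mutation variants displayed on the E. coli surface, counted by deep sequencing, each peptide's frequency after selection divided by its frequency in the unselected input library; frequency after pTyr selection over input frequency; kinase dosed for 20-30% of maximal phosphorylation in three min.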

EPHB1, sequence (P54762 whole entry, looked up): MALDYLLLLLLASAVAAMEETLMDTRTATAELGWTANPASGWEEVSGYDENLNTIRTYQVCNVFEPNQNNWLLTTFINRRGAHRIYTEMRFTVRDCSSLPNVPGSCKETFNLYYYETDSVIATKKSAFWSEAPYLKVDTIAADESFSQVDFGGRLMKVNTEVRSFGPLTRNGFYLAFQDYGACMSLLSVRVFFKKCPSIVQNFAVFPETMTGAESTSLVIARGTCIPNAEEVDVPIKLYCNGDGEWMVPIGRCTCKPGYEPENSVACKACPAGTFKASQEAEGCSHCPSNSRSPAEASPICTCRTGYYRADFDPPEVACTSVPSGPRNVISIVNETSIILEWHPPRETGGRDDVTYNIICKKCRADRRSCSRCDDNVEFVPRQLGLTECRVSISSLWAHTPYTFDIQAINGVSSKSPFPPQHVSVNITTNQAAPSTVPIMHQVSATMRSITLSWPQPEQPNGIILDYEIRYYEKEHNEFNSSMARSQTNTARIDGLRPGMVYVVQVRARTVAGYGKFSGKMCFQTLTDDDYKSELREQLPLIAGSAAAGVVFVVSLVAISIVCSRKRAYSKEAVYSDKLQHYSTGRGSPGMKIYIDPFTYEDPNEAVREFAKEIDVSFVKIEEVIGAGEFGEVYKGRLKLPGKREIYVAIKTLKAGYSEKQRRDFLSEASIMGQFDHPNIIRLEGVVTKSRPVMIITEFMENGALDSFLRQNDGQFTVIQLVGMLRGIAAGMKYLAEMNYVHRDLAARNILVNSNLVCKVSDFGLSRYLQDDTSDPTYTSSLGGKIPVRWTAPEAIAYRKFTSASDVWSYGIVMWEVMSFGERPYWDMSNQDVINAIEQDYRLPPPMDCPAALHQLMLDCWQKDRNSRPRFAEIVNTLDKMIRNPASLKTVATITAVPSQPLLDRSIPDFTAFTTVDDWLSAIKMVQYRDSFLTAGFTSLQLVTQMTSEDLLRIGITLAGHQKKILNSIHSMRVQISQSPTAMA
Hck, sequence (P08631 whole entry, looked up): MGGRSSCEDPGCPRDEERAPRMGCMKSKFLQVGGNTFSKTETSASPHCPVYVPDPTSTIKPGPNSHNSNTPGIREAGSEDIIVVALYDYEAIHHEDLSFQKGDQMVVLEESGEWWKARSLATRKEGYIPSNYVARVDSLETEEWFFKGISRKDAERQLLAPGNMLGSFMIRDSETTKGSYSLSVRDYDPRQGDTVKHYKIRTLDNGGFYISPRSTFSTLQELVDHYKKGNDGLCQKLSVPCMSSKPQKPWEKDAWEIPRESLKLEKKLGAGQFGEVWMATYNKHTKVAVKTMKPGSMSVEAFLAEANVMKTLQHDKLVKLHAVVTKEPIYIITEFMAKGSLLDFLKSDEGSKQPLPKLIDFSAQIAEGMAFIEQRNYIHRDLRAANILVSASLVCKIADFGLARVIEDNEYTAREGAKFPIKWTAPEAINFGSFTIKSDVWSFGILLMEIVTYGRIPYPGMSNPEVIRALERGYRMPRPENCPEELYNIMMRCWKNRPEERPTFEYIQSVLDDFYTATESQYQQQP
EPHB2, sequence (P29323 whole entry, looked up): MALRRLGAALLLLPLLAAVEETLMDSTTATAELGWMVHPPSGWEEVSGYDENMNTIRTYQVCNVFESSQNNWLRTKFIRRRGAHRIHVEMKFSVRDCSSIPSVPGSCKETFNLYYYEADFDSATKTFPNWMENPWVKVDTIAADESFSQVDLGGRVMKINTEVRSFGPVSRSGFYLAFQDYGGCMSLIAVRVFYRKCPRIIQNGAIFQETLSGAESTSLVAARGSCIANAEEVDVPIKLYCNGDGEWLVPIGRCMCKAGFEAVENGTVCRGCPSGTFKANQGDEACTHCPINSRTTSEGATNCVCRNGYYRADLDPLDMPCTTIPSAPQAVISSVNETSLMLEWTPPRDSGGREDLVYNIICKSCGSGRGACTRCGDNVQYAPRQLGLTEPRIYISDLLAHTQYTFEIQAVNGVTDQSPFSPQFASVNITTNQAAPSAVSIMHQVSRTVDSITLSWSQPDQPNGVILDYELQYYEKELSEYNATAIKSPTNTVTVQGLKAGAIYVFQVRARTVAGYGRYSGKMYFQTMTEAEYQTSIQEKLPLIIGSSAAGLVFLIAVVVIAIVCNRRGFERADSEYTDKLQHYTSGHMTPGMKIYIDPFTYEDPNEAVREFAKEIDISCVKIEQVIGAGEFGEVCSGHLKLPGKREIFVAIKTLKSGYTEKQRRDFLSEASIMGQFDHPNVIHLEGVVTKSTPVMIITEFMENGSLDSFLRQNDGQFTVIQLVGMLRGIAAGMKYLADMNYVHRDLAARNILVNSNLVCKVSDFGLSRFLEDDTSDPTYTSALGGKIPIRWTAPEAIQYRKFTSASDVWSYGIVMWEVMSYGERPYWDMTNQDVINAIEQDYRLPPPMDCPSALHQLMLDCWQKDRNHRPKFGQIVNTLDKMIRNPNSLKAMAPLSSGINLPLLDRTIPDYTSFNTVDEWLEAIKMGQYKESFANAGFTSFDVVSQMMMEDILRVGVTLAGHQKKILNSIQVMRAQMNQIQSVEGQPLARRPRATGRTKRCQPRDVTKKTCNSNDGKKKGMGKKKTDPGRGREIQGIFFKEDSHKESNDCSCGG
Jak2, sequence (O60674 whole entry, looked up): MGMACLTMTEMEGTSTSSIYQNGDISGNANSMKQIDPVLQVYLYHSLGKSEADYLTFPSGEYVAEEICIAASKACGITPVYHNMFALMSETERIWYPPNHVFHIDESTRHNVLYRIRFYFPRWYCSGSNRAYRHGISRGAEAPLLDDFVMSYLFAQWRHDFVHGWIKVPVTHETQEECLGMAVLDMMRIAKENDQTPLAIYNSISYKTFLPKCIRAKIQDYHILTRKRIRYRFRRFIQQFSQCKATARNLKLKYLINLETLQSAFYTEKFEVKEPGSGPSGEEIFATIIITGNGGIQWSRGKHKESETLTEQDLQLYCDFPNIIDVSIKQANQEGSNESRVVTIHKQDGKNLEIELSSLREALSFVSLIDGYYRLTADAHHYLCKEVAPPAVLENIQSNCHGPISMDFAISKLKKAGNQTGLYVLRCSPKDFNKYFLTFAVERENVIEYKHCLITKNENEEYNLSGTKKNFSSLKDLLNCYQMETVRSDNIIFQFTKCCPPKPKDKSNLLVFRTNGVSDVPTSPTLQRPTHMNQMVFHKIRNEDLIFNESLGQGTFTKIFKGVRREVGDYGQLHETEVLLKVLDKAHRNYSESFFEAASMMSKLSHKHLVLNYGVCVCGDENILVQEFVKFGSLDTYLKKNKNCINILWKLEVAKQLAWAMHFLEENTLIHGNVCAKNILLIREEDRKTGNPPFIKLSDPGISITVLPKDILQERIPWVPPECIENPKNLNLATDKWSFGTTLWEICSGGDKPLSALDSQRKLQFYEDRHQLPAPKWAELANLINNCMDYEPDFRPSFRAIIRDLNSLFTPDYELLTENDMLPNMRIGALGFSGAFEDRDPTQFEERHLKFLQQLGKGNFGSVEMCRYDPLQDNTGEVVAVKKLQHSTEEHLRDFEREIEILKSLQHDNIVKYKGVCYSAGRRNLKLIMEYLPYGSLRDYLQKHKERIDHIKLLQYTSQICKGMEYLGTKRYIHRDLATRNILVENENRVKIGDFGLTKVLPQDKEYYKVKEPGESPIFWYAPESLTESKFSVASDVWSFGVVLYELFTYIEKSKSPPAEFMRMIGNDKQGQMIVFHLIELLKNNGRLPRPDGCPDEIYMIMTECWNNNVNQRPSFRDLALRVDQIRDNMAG
FGFR3, sequence (P22607 whole entry, looked up): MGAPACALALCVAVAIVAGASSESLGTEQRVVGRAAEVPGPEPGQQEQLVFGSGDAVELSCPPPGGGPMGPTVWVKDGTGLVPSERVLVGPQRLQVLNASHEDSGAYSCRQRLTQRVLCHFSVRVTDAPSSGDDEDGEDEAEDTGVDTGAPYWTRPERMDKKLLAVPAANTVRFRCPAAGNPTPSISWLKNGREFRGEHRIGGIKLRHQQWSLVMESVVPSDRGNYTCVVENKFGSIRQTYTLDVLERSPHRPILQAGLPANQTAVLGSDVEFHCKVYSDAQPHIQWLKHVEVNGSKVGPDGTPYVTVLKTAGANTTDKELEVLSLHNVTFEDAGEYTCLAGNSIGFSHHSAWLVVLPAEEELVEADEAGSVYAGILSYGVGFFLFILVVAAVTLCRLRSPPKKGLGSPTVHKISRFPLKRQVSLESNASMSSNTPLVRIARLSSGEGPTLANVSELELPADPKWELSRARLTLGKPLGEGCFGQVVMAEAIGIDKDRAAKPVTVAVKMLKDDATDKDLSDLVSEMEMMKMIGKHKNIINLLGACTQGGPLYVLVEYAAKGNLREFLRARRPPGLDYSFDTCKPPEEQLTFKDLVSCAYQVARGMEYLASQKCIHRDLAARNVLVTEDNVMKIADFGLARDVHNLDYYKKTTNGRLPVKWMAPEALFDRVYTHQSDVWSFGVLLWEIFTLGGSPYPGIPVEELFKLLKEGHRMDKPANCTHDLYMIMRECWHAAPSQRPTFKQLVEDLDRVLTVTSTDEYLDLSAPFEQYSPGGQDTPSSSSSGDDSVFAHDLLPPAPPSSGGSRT
Fyn, sequence (P06241 whole entry, looked up): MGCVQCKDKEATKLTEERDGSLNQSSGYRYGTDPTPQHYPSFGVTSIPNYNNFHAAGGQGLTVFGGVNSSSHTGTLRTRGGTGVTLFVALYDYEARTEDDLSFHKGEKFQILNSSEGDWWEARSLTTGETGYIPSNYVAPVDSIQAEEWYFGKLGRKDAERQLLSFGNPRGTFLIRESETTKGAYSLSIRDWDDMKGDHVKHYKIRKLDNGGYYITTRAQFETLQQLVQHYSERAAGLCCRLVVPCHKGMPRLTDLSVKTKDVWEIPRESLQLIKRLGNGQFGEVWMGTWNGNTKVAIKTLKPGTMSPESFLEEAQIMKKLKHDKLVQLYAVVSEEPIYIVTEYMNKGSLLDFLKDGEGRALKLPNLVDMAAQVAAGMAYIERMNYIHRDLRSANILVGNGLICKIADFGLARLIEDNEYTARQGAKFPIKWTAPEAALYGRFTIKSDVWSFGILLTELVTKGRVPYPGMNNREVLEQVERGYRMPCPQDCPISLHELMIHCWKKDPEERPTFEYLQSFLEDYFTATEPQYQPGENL

Sequence	SH2 binding enrichment (Grb2 SH2)	SH2 binding enrichment (c-Src SH2)	SH2 binding enrichment (SHP2-C SH2)	phosphorylation enrichment (Fer (mouse))	phosphorylation enrichment (Hck)	phosphorylation enrichment (Jak2)	phosphorylation enrichment (Fyn)	phosphorylation enrichment (c-Abl (mouse))	phosphorylation enrichment (EPHB1)	phosphorylation enrichment (Fes)	phosphorylation enrichment (FGFR3)	phosphorylation enrichment (EPHB2)	phosphorylation enrichment (c-Src)	phosphorylation enrichment (AncSZ)	phosphorylation enrichment (MERTK)	phosphorylation enrichment (FGFR1)
PGIRMYRVQYN [LRFN1_Y454_Q455R]	0.838	0.507	0.714	0.989	0.62	0.626	0.486	0.675	0.744	1.08	0.713	0.586	0.473	0.759	0.527	0.58
ILIFHYAKGQP [MPZ_Y82_S78L]	1.47	1.1	1.27	0.819	0.674	1.01	0.504	0.904	0.753	1.37	0.85	0.705	0.508	1.32	0.475	0.612
LNPDGYKKAFE [CPXM2_Y427_E428K_YF]	0.945	0.488	0.578	0.67	0.54	1.68	0.495	1.28	0.727	2.1	0.833	0.793	0.827	1.02	0.727	0.866
LDLSYYHTSSS [EMD_Y182_P183H]	1.26	1.19	1.36	0.451	0.452	1.51	0.509	0.672	0.516	0.977	1.22	0.614	0.676	0.929	0.634	1.11
ELAKYYKLHHI [AK7_Y391_N389K]	0.961	0.748	0.93	0.461	0.393	0.987	0.41	0.665	0.589	0.827	0.677	0.562	0.478	0.884	0.376	0.516
FDGKEYDPVEA [MAPRE2_Y167_YF]	0.985	0.795	0.408	0.631	0.617	1.2	0.62	0.924	0.636	1.43	0.801	0.545	0.573	1.5	0.493	0.545
LFSGDCFRIQG [DDR2_Y740_Y740C_YF]	0.844	0.553	0.524	0.468	0.486	0.764	0.472	0.84	0.554	1.15	0.693	0.602	0.459	0.931	0.425	0.516
IFGVSYGEFRF [CFTR_Y512_D513G_YF]	1.06	0.705	1.08	0.504	4.06	0.99	5.32	0.779	0.576	1.09	0.646	0.561	5.39	0.941	0.465	0.383
TTASRYLKVSD [MYOM2_Y871_N869S]	0.534	0.515	0.54	0.377	0.311	0.434	0.373	0.54	0.347	0.636	0.467	0.293	0.362	0.489	0.313	0.366
EEGNPYYSSTR [MCCC2_Y520_A524T]	0.82	1.22	1.15	0.722	1.25	0.693	0.921	0.67	0.595	1.1	0.74	0.531	1.44	1.1	0.428	0.672
KPGVNYYFQVS	1.01	1.3	2	0.522	0.526	1.44	0.573	0.895	0.699	1.35	2.05	0.602	0.5	1.22	0.873	2.49
SLVGCYNLTFM [HS6ST3_Y323]	0.599	0.432	0.553	1.29	0.745	1.39	0.694	1.12	0.694	1.56	0.95	0.868	0.794	1.42	0.498	0.589
YSGDCYRIQGR [DDR2_Y741_Y740C]	0.798	0.615	0.506	0.49	0.564	0.735	0.475	0.552	0.468	0.83	0.715	0.514	0.374	0.818	1.25	0.483
FRASFYRKGGC [ALK_Y1283_YF]	0.616	0.499	0.502	0.466	0.477	0.683	0.618	0.663	0.459	0.902	0.532	0.527	0.586	0.866	0.579	0.531
EAVSIYQFFGQ [CBLC_Y402_H405Y_YF]	0.921	0.654	0.881	8.72	7.12	1.34	7.8	6.44	11.2	1.36	2.67	5.73	6.58	1.74	9.29	3.15
KPRKPYTIKKP [BRD2_Y715]	1.85	1.9	1.73	1.19	0.924	2.95	0.608	1.98	1.03	1.94	2.2	0.765	0.75	1.28	0.644	0.864
NKFVAYIESQG [KDM4B_Y34_YF]	0.968	0.565	0.801	0.481	0.494	0.836	0.49	0.611	0.526	1.12	0.663	0.553	0.452	0.899	0.459	0.491
NARGLYFKLHN [GATA2_Y376_C373R_YF]	0.988	0.624	0.88	0.657	0.53	1.67	0.487	0.896	0.622	1.34	0.87	0.634	0.542	1.51	0.476	0.554
RVLHNYLVWRV [ECEL1_Y400]	1.74	1.73	1.79	1.12	1.01	1.07	0.867	0.762	1.6	1.93	1.7	1.12	0.526	2.51	0.79	1.4

Now from value to sequence, other results behind:

SH2 binding enrichment (Grb2 SH2)	SH2 binding enrichment (c-Src SH2)	SH2 binding enrichment (SHP2-C SH2)	Sequence	phosphorylation enrichment (Fer (mouse))	phosphorylation enrichment (Hck)	phosphorylation enrichment (Jak2)	phosphorylation enrichment (Fyn)	phosphorylation enrichment (c-Abl (mouse))	phosphorylation enrichment (EPHB1)	phosphorylation enrichment (Fes)	phosphorylation enrichment (FGFR3)	phosphorylation enrichment (EPHB2)	phosphorylation enrichment (c-Src)	phosphorylation enrichment (AncSZ)	phosphorylation enrichment (MERTK)	phosphorylation enrichment (FGFR1)
0.984	0.681	0.821	DKNSSYFADWF [TUBB8_Y340_L345F]	0.345	0.397	1.32	0.479	0.613	0.676	1.01	1.62	0.507	0.435	0.992	2.04	2.44
0.791	0.963	0.861	SVVLPYEPPEV [TP53_Y220_V218L]	0.746	0.518	0.98	0.456	0.945	0.686	1.12	0.704	0.797	0.592	1.47	0.47	0.538
0.721	0.39	0.489	RLRAAYNLVKR [PFKM_Y103]	0.771	0.698	0.766	0.632	0.815	0.571	1.04	1.01	0.715	0.653	1.16	0.559	0.658
0.741	0.924	1	DVYVSYDYGKS [SORL1_Y139]	2.42	4.33	0.795	7.46	1.03	2.95	0.98	4.03	5.62	5.25	1.45	4.1	6.8
0.705	0.655	0.506	SNKELYEKYMI	7.5	0.871	0.616	0.593	0.487	0.652	0.802	0.579	0.62	0.96	0.896	0.597	0.482
0.948	0.611	0.742	ETCLAYREKRI [TEKT1_Y118]	0.371	0.49	0.693	0.536	0.503	0.466	0.956	0.558	0.519	0.423	1.07	0.508	0.61
0.928	0.609	0.791	KDPPDYKFQPR [SOX9_Y172_H169P_YF]	0.449	0.414	0.719	0.439	0.626	0.343	0.789	0.527	0.44	0.43	0.811	0.461	0.427
1.04	0.842	0.948	PRIKTYMRPSP [TDP1_Y497_H493R]	0.378	0.36	0.49	0.366	0.425	0.317	0.65	0.522	0.465	0.474	0.493	0.44	0.451
0.897	0.51	0.686	GFSDPYVKAFL [SYT3_Y470_S474F]	0.565	0.466	0.898	0.481	0.772	0.595	1	0.729	0.577	0.497	0.693	0.472	0.535
0.756	0.596	0.508	FGGTVCHSPVS [PRC1_Y511_Y511C]	0.452	0.505	0.506	0.447	0.548	0.38	0.627	0.524	0.493	0.576	0.688	0.456	0.524
0.862	1.26	3.64	GITVTYTIPKK [UBA5_Y372_A371T]	0.497	0.54	0.994	0.413	2.12	0.537	0.96	0.563	0.557	0.4	0.933	1.49	0.522
0.723	0.682	1.29	LNEWHYGGLTG [PGAM2_Y92_R90W]	0.636	0.738	0.84	0.662	0.626	0.444	1.12	0.891	0.452	0.52	0.74	0.365	0.58
0.829	0.53	0.937	GSIQQYTFKQE [PRG4_Y1271_I1272T_YF]	0.427	0.347	0.641	0.345	0.728	0.484	0.785	0.573	0.451	0.356	0.703	0.322	0.369
0.893	0.634	0.771	AYRHGYFDEEM [PLEC_Y2971_R2969H]	0.526	0.643	0.827	0.593	0.742	0.664	1.05	0.657	0.631	0.461	1.03	0.5	0.676
